The supplement of paper PMC10567573

B1: DUSP5 (parent)
chain: YSEYPECCVDVKPISQEKIESERA

Variants of: B1
Test: protein stability index of a GFP-peptide fusion (GPS, HEK-293T) (PSI 1-6); higher = more stable
Conditions: c terminus: a fixed tail appended
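Further: lentivirally expressed fusions sorted by FACS into six bins by GFP to DsRed ratio, PSI derived from sequencing read proportions per bin multiplied by bin number.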

With YSEYPEVCVDVKPISQEKIESERA [C7V] as the variant, how does the protein stability index read?
The protein stability index was 3.95.

With YSEYPERCVDVKPISQEKIESERA [C7R] as the variant, how does the protein stability index read?
Its protein stability index is 4.26.

For YSEYPENCVDVKPISQEKIESERA [C7N], which protein stability index is on record?
The protein stability index was 4.64.

For YSEYPEICVDVKPISQEKIESERA [C7I], which protein stability index is on record?
The protein stability index was 3.37.

Which protein stability index does the source give for YSEYPEYCVDVKPISQEKIESERA [C7Y] here?
Its protein stability index is 2.02.

With YSEYPEGCVDVKPISQEKIESERA [C7G] as the variant, how does the protein stability index read?
The protein stability index was 5.38.

For YSEYPEKCVDVKPISQEKIESERA [C7K], which protein stability index is on record?
Its protein stability index is 4.6.

For YSEYPEMCVDVKPISQEKIESERA [C7M], which protein stability index is on record?
The protein stability index was 3.81.

For YSEYPESCVDVKPISQEKIESERA [C7S], which protein stability index is on record?
The protein stability index was 5.47.

Which protein stability index does the source give for YSEYPEWCVDVKPISQEKIESERA [C7W] here?
Its protein stability index is 2.95.

For YSEYPEQCVDVKPISQEKIESERA [C7Q], which protein stability index is on record?
The protein stability index was 5.35.

With YSEYPEDCVDVKPISQEKIESERA [C7D] as the variant, how does the protein stability index read?
Its protein stability index is 4.89.

Which protein stability index does the source give for YSEYPEECVDVKPISQEKIESERA [C7E] here?
The protein stability index was 5.76.

Which protein stability index does the source give for YSEYPETCVDVKPISQEKIESERA [C7T] here?
Its protein stability index is 4.81.

For YSEYPELCVDVKPISQEKIESERA [C7L], which protein stability index is on record?
The protein stability index was 3.75.

For YSEYPEHCVDVKPISQEKIESERA [C7H], which protein stability index is on record?
The protein stability index was 4.17.

For YSEYPEPCVDVKPISQEKIESERA [C7P], which protein stability index is on record?
The protein stability index was 5.4.

With YSEYPEFCVDVKPISQEKIESERA [C7F] as the variant, how does the protein stability index read?
The protein stability index was 2.28.

With YSEYPEACVDVKPISQEKIESERA [C7A] as the variant, how does the protein stability index read?
The protein stability index was 4.16.

Which protein stability index does the source give for YSCYPECCVDVKPISQEKIESERA [E3C] here?
Its protein stability index is 3.53.

For YSLYPECCVDVKPISQEKIESERA [E3L], which protein stability index is on record?
The protein stability index was 4.24.

With YSPYPECCVDVKPISQEKIESERA [E3P] as the variant, how does the protein stability index read?
Its protein stability index is 4.56.

For YSTYPECCVDVKPISQEKIESERA [E3T], which protein stability index is on record?
Its protein stability index is 4.67.

Which protein stability index does the source give for YSRYPECCVDVKPISQEKIESERA [E3R] here?
The protein stability index was 4.17.

With YSMYPECCVDVKPISQEKIESERA [E3M] as the variant, how does the protein stability index read?
Its protein stability index is 4.7.

Which protein stability index does the source give for YSGYPECCVDVKPISQEKIESERA [E3G] here?
The protein stability index was 4.27.

With YSDYPECCVDVKPISQEKIESERA [E3D] as the variant, how does the protein stability index read?
The protein stability index was 5.39.

Which protein stability index does the source give for YSIYPECCVDVKPISQEKIESERA [E3I] here?
Its protein stability index is 4.17.

For YSHYPECCVDVKPISQEKIESERA [E3H], which protein stability index is on record?
The protein stability index was 4.49.

With YSYYPECCVDVKPISQEKIESERA [E3Y] as the variant, how does the protein stability index read?
Its protein stability index is 4.24.

Which protein stability index does the source give for YSQYPECCVDVKPISQEKIESERA [E3Q] here?
Its protein stability index is 4.36.

Which protein stability index does the source give for YSKYPECCVDVKPISQEKIESERA [E3K] here?
Its protein stability index is 4.53.

With YSFYPECCVDVKPISQEKIESERA [E3F] as the variant, how does the protein stability index read?
The protein stability index was 4.66.

With YSAYPECCVDVKPISQEKIESERA [E3A] as the variant, how does the protein stability index read?
Its protein stability index is 4.55.

With YSNYPECCVDVKPISQEKIESERA [E3N] as the variant, how does the protein stability index read?
The protein stability index was 4.62.

With YSSYPECCVDVKPISQEKIESERA [E3S] as the variant, how does the protein stability index read?
Its protein stability index is 3.95.

For YSEHPECCVDVKPISQEKIESERA [Y4H], which protein stability index is on record?
Its protein stability index is 5.02.

Which protein stability index does the source give for YSEEPECCVDVKPISQEKIESERA [Y4E] here?
The protein stability index was 5.93.

With YSEDPECCVDVKPISQEKIESERA [Y4D] as the variant, how does the protein stability index read?
The protein stability index was 5.67.

For YSEFPECCVDVKPISQEKIESERA [Y4F], which protein stability index is on record?
The protein stability index was 4.06.

Which protein stability index does the source give for YSERPECCVDVKPISQEKIESERA [Y4R] here?
Its protein stability index is 5.52.

With YSEQPECCVDVKPISQEKIESERA [Y4Q] as the variant, how does the protein stability index read?
Its protein stability index is 5.34.

With YSEAPECCVDVKPISQEKIESERA [Y4A] as the variant, how does the protein stability index read?
Its protein stability index is 5.66.

For YSEVPECCVDVKPISQEKIESERA [Y4V], which protein stability index is on record?
The protein stability index was 5.67.

With YSEGPECCVDVKPISQEKIESERA [Y4G] as the variant, how does the protein stability index read?
Its protein stability index is 5.77.

With YSEWPECCVDVKPISQEKIESERA [Y4W] as the variant, how does the protein stability index read?
Its protein stability index is 1.72.

Which protein stability index does the source give for YSESPECCVDVKPISQEKIESERA [Y4S] here?
The protein stability index was 5.19.

For YSEPPECCVDVKPISQEKIESERA [Y4P], which protein stability index is on record?
The protein stability index was 5.53.

For YSELPECCVDVKPISQEKIESERA [Y4L], which protein stability index is on record?
Its protein stability index is 5.71.

With YSETPECCVDVKPISQEKIESERA [Y4T] as the variant, how does the protein stability index read?
The protein stability index was 5.77.

For YSEMPECCVDVKPISQEKIESERA [Y4M], which protein stability index is on record?
Its protein stability index is 4.6.

With YSEIPECCVDVKPISQEKIESERA [Y4I] as the variant, how does the protein stability index read?
The protein stability index was 5.75.

Which protein stability index does the source give for YSEKPECCVDVKPISQEKIESERA [Y4K] here?
The protein stability index was 5.62.

With YAEYPECCVDVKPISQEKIESERA [S2A] as the variant, how does the protein stability index read?
The protein stability index was 3.48.

With YIEYPECCVDVKPISQEKIESERA [S2I] as the variant, how does the protein stability index read?
The protein stability index was 1.92.

Which protein stability index does the source give for YNEYPECCVDVKPISQEKIESERA [S2N] here?
The protein stability index was 5.31.

Which protein stability index does the source give for YHEYPECCVDVKPISQEKIESERA [S2H] here?
The protein stability index was 2.13.

Which protein stability index does the source give for YCEYPECCVDVKPISQEKIESERA [S2C] here?
The protein stability index was 2.29.

Which protein stability index does the source give for YLEYPECCVDVKPISQEKIESERA [S2L] here?
The protein stability index was 3.67.

For YDEYPECCVDVKPISQEKIESERA [S2D], which protein stability index is on record?
Its protein stability index is 5.29.

Which protein stability index does the source give for YMEYPECCVDVKPISQEKIESERA [S2M] here?
The protein stability index was 4.28.

With YWEYPECCVDVKPISQEKIESERA [S2W] as the variant, how does the protein stability index read?
The protein stability index was 4.44.

Which protein stability index does the source give for YGEYPECCVDVKPISQEKIESERA [S2G] here?
The protein stability index was 5.11.

Which protein stability index does the source give for YFEYPECCVDVKPISQEKIESERA [S2F] here?
The protein stability index was 4.11.

Which protein stability index does the source give for YREYPECCVDVKPISQEKIESERA [S2R] here?
The protein stability index was 5.49.

With YEEYPECCVDVKPISQEKIESERA [S2E] as the variant, how does the protein stability index read?
Its protein stability index is 5.79.

For YPEYPECCVDVKPISQEKIESERA [S2P], which protein stability index is on record?
Its protein stability index is 4.88.

Which protein stability index does the source give for YYEYPECCVDVKPISQEKIESERA [S2Y] here?
The protein stability index was 4.93.

Which protein stability index does the source give for YQEYPECCVDVKPISQEKIESERA [S2Q] here?
The protein stability index was 4.29.

With YTEYPECCVDVKPISQEKIESERA [S2T] as the variant, how does the protein stability index read?
The protein stability index was 2.62.

Which protein stability index does the source give for YVEYPECCVDVKPISQEKIESERA [S2V] here?
The protein stability index was 2.53.

For YKEYPECCVDVKPISQEKIESERA [S2K], which protein stability index is on record?
Its protein stability index is 5.35.

With YSEYPECDVDVKPISQEKIESERA [C8D] as the variant, how does the protein stability index read?
Its protein stability index is 4.84.

For YSEYPECGVDVKPISQEKIESERA [C8G], which protein stability index is on record?
Its protein stability index is 5.25.

Which protein stability index does the source give for YSEYPECAVDVKPISQEKIESERA [C8A] here?
The protein stability index was 4.56.

With YSEYPECEVDVKPISQEKIESERA [C8E] as the variant, how does the protein stability index read?
Its protein stability index is 4.85.

With YSEYPQCCVDVKPISQEKIESERA [E6Q] as the variant, how does the protein stability index read?
The protein stability index was 2.67.

Which protein stability index does the source give for YSEYPCCCVDVKPISQEKIESERA [E6C] here?
The protein stability index was 2.6.

Which protein stability index does the source give for YSEYPPCCVDVKPISQEKIESERA [E6P] here?
The protein stability index was 2.4.

Which protein stability index does the source give for YSEYPTCCVDVKPISQEKIESERA [E6T] here?
Its protein stability index is 2.75.

With YSEYPKCCVDVKPISQEKIESERA [E6K] as the variant, how does the protein stability index read?
The protein stability index was 1.38.

Which protein stability index does the source give for YSEYPMCCVDVKPISQEKIESERA [E6M] here?
The protein stability index was 1.63.

With YSEYPWCCVDVKPISQEKIESERA [E6W] as the variant, how does the protein stability index read?
The protein stability index was 3.98.

Which protein stability index does the source give for YSEYPHCCVDVKPISQEKIESERA [E6H] here?
The protein stability index was 2.47.

With YSEYPYCCVDVKPISQEKIESERA [E6Y] as the variant, how does the protein stability index read?
The protein stability index was 1.44.

With YSEYPACCVDVKPISQEKIESERA [E6A] as the variant, how does the protein stability index read?
The protein stability index was 2.63.

Which protein stability index does the source give for YSEYPRCCVDVKPISQEKIESERA [E6R] here?
Its protein stability index is 1.83.

For YSEYPVCCVDVKPISQEKIESERA [E6V], which protein stability index is on record?
Its protein stability index is 2.37.

Which protein stability index does the source give for YSEYPSCCVDVKPISQEKIESERA [E6S] here?
The protein stability index was 2.9.

With YSEYPDCCVDVKPISQEKIESERA [E6D] as the variant, how does the protein stability index read?
The protein stability index was 4.55.

With YSEYPNCCVDVKPISQEKIESERA [E6N] as the variant, how does the protein stability index read?
The protein stability index was 3.74.

Which protein stability index does the source give for YSEYPGCCVDVKPISQEKIESERA [E6G] here?
The protein stability index was 3.36.

For YSEYPFCCVDVKPISQEKIESERA [E6F], which protein stability index is on record?
Its protein stability index is 2.28.

With YSEYQECCVDVKPISQEKIESERA [P5Q] as the variant, how does the protein stability index read?
Its protein stability index is 5.33.
